Results taken from patent US6447783 (YEDA RESEARCH AND DEVELOPMENT, dated 2002).

Experiments:
[1] = target: T1, Recombinant mouse FGF9 (fibroblast growth factor 9) (mouse); assay: 125I-FGF9 binding to FGFR3 transfected CHO 745 cells at 4 C, in the presence of 1 mg/ml heparin
[2] = target: T1, Recombinant mouse FGF9 (fibroblast …); assay: 125I-FGF9 binding to FGFR3 transfected CHO-KI cells at 4 C, in the presence of 1 mg/ml heparin
[3] = target: T1, Recombinant mouse FGF9 (fibroblast …); assay: FGF9 immobilised on heparin-sepharose, bound receptor-AP measured by alkaline phosphatase activity

Row | Kd [1] | Kd [2] | binding result [3] | Binder
1 | 0.1 nM | 0.06 nM |  | Full length mouse FGFR3 expressed in CHO cells (wild type KI and heparan-sulfate deficient 745) (receptor, whole, on cells; also called FGFR3 transfected CHO-KI cells) EPPGPEQRVVRRAAEVPGPEPSQQEQVAFGSGDTVELSCHPPGGAPTGPTVWAKDGTGLVASHRILVGPQRLQVLNASHEDAGVYSCQHRLTRRVLCHFSVRVTDAPSSGDDEDGEDVAEDTGAPYWTRPERMDKKLLAVPAANTVRFRCPAAGNPTPSISWLKNGKEFRGEHRIGGIKLRHQQWSLVMESVVPSDRGNYTCVVENKFGSIRQTYTLDVLERSPHRPILQAGLPANQTAILGSDVEFHCKVYSDAQPHIQWLKHVEVNGSKVGPDGTPYVTVLKTAGANTTDKELEVLSLHNVTFEDAGEYTCLAGNSIGFSHHSAWLVVLPAEEELMETDEAGSVYAGVLSYGVVFFLFILVVAAVILCRLRSPPKKGLGSPTVHKVSRFPLKRQVSLESNSSMNSNTPLVRIARLSSGEGPVLANVSELELPADPKWELSRTRLTLGKPLGEGCFGQVVMAEAIGIDKDRTAKPVTVAVKMLKDDATDKDLSDLVSEMEMMKMIGKHKNIINLLGACTQGGPLYVLVEYAAKGNLREFLRARRPPGMDYSFDACRLPEEQLTCKDLVSCAYQVARGMEYLASQKCIHRDLAARNVLVTEDNVMKIADFGLARDVHNLDYYKKTTNGRLPVKWMAPEALFDRVYTHQSDVWSFGVLLWEIFTPGGPSPYPGIPVEELFKLLKEGHRMDKPASCTHDLYMIMRECWHAVPSQRPTFKQLVEDLDRILTVTSTDEYLDLSVPFEQYSPGGQDTPSSSSSGDDSVFTHDLLPPGPPSNGGPRT
2 |  |  | no binding | Soluble extracellular domain of murine FGFR1 coupled to human placental alkaline phosphatase (receptor, extracellular domain; Collected from conditioned medium of transfected NIH 3T3 cells; also called FGFR1 fusion protein; FGFR-alkaline phosphatase fusion protein; not shown: human placental alkaline phosphatase) RPAPTLPEQAQPWGVPVEVESLLVHPGDLLQLRCRLRDDVQSINWLRDGVQLVESNRTRITGEEVEVRDSIPADSGLYACVTSSPSGSDTTYFSVNVSDALPSSEDDDDDDDSSSEEKETDNTKPNRRPVAPYWTSPEKMEKKLHAVPAAKTVKFKCPSSGTPNPTLRWLKNGKEFKPDHRIGGYKVRYATWSIIMDSVVPSDKGNYTCIVENEYGSINHTYQLDVVERSPHRPILQAGLPANKTVALGSNVEFMCKVYSDPQPHIQWLKHIEVNGSKIGPDNLPYVQILKTAGVNTTDKEMEVLHLRNVSFEDAGEYTCLAGNSIGLSHHSAWLTVLEALEERPAVMTSPLYLE
